This is an account of results in article PMC9482650, “Quantitative fragmentomics allow affinity mapping of interactomes” (Nature Communications, 2022).

Some targets named below: LNX1_3, Q8TBB1; Inadl_3, Q8NI35; LAP2, Q96RT1; IL16_1, Q14005; DLG4_2, P78352; FRMPD2_1, Q68DX3; NHERF4_2, Q86UT5; NHERF4_4, Q86UT5; LIMK2, P53671.
Test in all cases: holdup assay
Set-up in all cases: key: below the threshold = too weak to quantify, mostly under pKd 3.1 to 4

The target in the next assay is T1, MPP6, Q9NZW5.
T1 sequence (Q9NZW5 125-219, limits assumed, looked up): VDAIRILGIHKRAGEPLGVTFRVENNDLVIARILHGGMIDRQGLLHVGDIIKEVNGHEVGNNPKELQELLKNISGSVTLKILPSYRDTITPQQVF

The target in the next assay is T2, MPP7, Q5T2T1.
T2 sequence (Q5T2T1 134-230, limits assumed, looked up): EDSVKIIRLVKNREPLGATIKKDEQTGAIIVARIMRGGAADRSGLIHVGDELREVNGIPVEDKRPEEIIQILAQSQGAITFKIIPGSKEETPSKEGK

The target of another assay is T3, NHERF3_4, Q5T2W1.
T3 sequence (Q5T2W1 373-468, limits assumed, looked up): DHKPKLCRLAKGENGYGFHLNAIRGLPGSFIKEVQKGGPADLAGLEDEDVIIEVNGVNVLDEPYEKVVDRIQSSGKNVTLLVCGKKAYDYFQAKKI

In another assay the target is T4, MPDZ_10, O75970.
T4 sequence (O75970 1624-1722, limits assumed, looked up): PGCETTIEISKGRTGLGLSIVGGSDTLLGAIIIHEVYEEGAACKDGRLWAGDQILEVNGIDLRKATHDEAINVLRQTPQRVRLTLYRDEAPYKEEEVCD

For the next assay, the target named is T5, APBA1_2, Q02410.
T5 sequence (Q02410 742-832, limits assumed, looked up): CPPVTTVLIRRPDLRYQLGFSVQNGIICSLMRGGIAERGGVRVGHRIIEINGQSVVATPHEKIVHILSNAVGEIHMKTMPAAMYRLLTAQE

The target of the next assay is T6, FRMPD1, Q5SYB0.
T6 sequence (Q5SYB0 52-145, limits assumed, looked up): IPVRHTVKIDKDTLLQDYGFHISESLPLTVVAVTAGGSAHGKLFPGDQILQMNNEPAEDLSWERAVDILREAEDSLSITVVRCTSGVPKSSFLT

In the next assay the target is T7, LNX2_3, Q8N448.
T7 sequence (Q8N448 463-564, limits assumed, looked up): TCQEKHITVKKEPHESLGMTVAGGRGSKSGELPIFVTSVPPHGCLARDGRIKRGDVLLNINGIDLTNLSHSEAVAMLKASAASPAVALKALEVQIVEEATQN

The next assay addresses T8, PDZD2_2, O15018.
T8 sequence (O15018 329-429, limits assumed, looked up): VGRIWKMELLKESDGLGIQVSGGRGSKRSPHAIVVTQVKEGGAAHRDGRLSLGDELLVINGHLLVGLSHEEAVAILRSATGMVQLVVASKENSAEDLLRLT

The next assay addresses T9, SHANK1, Q9Y566.
T9 sequence (Q9Y566 658-767, limits assumed, looked up): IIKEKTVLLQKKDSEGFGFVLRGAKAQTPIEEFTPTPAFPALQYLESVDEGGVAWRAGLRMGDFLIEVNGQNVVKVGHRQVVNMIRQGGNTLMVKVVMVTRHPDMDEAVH

The target in the next assay is T10, APBA2_2, Q99767.
T10 sequence (Q99767 654-744, limits assumed, looked up): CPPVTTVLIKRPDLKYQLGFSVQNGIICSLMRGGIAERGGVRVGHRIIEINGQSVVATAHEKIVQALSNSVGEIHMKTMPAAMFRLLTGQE

The next assay deals with T11, DFNB31_2, Q9P202.
T11 sequence (Q9P202 274-371, limits assumed, looked up): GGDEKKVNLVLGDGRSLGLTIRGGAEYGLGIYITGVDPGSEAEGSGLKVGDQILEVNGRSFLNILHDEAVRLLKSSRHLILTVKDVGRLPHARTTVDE

The target in a further assay is T12, TX1BP3, O14907.
T12 sequence (O14907 10-122, limits assumed, looked up): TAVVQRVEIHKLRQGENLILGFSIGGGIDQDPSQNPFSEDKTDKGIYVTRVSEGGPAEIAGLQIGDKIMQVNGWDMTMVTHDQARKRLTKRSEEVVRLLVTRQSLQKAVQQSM

For another assay, the target named is T13, NHERF3_3, Q5T2W1.
T13 sequence (Q5T2W1 238-333, limits assumed, looked up): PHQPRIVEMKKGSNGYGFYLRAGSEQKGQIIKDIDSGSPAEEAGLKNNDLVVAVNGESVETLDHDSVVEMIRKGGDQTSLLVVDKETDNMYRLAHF

The target in the next assay is T14, CARD11, Q9BXL7.
T14 sequence (Q9BXL7 662-765, limits assumed, looked up): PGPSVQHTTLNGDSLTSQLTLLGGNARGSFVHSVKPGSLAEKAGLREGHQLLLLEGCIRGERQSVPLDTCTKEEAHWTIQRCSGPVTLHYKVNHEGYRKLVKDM

[1] abbreviates: plain residues with an end cap or a label only (N-terminal biotin on a linker: ahx).
The mark [2] stands for this setting: plain residues with an end cap or a label only (N-terminal biotin on a linker: ttds).

Sequence of FRMPD2_1, Q68DX3 (Q68DX3 770-861): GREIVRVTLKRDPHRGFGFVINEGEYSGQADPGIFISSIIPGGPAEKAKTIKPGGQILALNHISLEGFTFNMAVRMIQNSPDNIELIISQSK
Sequence of NHERF4_4, Q86UT5 (Q86UT5 464-550): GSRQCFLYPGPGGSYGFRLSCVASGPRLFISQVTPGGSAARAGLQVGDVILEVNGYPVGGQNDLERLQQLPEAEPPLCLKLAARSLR
Sequence of LNX1_3, Q8TBB1 (Q8TBB1 500-596): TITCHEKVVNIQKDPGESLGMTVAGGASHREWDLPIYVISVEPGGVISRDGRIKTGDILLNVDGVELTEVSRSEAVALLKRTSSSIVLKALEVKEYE
Sequence of LIMK2, P53671 (P53671 143-248): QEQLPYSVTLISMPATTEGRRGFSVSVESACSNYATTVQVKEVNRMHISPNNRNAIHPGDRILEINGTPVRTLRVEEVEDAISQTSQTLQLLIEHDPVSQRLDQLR
Sequence of DLG4_2, P78352 (P78352 155-259): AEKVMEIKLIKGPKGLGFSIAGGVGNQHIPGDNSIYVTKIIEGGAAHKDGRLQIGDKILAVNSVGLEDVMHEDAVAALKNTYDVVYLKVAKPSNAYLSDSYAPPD
Sequence of NHERF4_2, Q86UT5 (Q86UT5 220-308): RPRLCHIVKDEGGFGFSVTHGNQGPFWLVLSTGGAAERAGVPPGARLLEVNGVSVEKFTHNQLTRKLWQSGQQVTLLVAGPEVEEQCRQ
Sequence of IL16_1, Q14005 (Q14005 210-306): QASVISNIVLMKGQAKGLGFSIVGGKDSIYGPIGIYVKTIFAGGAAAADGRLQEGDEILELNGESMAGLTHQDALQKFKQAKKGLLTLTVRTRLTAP
Sequence of Inadl_3, Q8NI35 (Q8NI35 359-469): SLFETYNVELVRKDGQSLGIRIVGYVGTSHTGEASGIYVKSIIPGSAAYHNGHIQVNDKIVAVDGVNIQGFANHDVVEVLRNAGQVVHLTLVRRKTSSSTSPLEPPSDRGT
Sequence of LAP2, Q96RT1 (Q96RT1 other isoform, or with tags, fused parts or gaps): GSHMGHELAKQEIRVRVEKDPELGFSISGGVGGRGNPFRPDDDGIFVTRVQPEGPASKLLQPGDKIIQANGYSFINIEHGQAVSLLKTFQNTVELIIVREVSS

As for SDSSGQEYSL [KCTD3, Q9Y597], the pKd result in the assay with LNX1_3, Q8TBB1 (setting [1]) is “below the threshold”; in the assay with Inadl_3, Q8NI35 (setting [1]) it was “below the threshold”; with LAP2, Q96RT1 (setting [1]), “below the threshold”; with IL16_1, Q14005 (setting [1]) it was “below the threshold”; in the assay with MPP6, Q9NZW5 (setting [1]) it was 3.83; with MPP7, Q5T2T1 (setting [1]) it was 4.1. Further, the pKd entry is “below the threshold” with DLG4_2, P78352 (setting [1]); “below the threshold” with NHERF3_4, Q5T2W1 (setting [1]); 3.56 with MPDZ_10, O75970 (setting [1]); 3.65 with APBA1_2, Q02410 (setting [1]); “below the threshold” with FRMPD2_1, Q68DX3 (setting [1]); “below the threshold” with FRMPD1, Q5SYB0 (setting [1]). For the same molecule, the pKd entry in the assay with NHERF4_2, Q86UT5 (setting [1]) is “below the threshold”; in the assay with LNX2_3, Q8N448 (setting [1]), “below the threshold”; with PDZD2_2, O15018 (setting [1]), “below the threshold”; in the assay with SHANK1, Q9Y566 (setting [1]), “below the threshold”; with APBA2_2, Q99767 (setting [1]), “below the threshold”; with DFNB31_2, Q9P202 (setting [1]), “below the threshold”. In addition, the pKd result is “below the threshold” in the assay with NHERF4_4, Q86UT5 (setting [1]); “below the threshold” with TX1BP3, O14907 (setting [1]); “below the threshold” in the assay with NHERF3_3, Q5T2W1 (setting [1]); “below the threshold” with CARD11, Q9BXL7 (setting [1]); “below the threshold” in the assay with LIMK2, P53671 (setting [1]).

On to PRVKPQRSKV [PPP1R13L, Q8WUF5], for which the pKd entry is “below the threshold” in the assay with LNX1_3, Q8TBB1 (setting [2]); “below the threshold” in the assay with Inadl_3, Q8NI35 (setting [2]); “below the threshold” with LAP2, Q96RT1 (setting [2]); “below the threshold” with IL16_1, Q14005 (setting [2]); “below the threshold” with MPP6, Q9NZW5 (setting [2]); “below the threshold” with MPP7, Q5T2T1 (setting [2]). The pKd result with DLG4_2, P78352 (setting [2]) was “below the threshold”; with NHERF3_4, Q5T2W1 (setting [2]) it was “below the threshold”; with MPDZ_10, O75970 (setting [2]), “below the threshold”; with APBA1_2, Q02410 (setting [2]), 3.54; with FRMPD2_1, Q68DX3 (setting [2]) it was “below the threshold”; in the assay with FRMPD1, Q5SYB0 (setting [2]), “below the threshold”. In addition, the pKd entry with NHERF4_2, Q86UT5 (setting [2]) is “below the threshold”; with LNX2_3, Q8N448 (setting [2]), “below the threshold”; with PDZD2_2, O15018 (setting [2]), 4.01; with SHANK1, Q9Y566 (setting [2]), 3.64; with APBA2_2, Q99767 (setting [2]), “below the threshold”; with DFNB31_2, Q9P202 (setting [2]), “below the threshold”. For the same molecule, the negative-log Kd (pKd) result in the assay with NHERF4_4, Q86UT5 (setting [2]) was “below the threshold”; in the assay with TX1BP3, O14907 (setting [2]), 3.82; with NHERF3_3, Q5T2W1 (setting [2]), “below the threshold”; with CARD11, Q9BXL7 (setting [2]), “below the threshold”; with LIMK2, P53671 (setting [2]), “below the threshold”.

With SKPTRRETEV [HPV35-E6, P27228], the negative logarithm of the Kd (pKd) entry is “below the threshold” with LNX1_3, Q8TBB1 (setting [2]); “below the threshold” with Inadl_3, Q8NI35 (setting [2]); 3.69 in the assay with LAP2, Q96RT1 (setting [2]); “below the threshold” with IL16_1, Q14005 (setting [2]); “below the threshold” in the assay with MPP6, Q9NZW5 (setting [2]); “below the threshold” with MPP7, Q5T2T1 (setting [2]). Further, the pKd in the assay with DLG4_2, P78352 (setting [2]) was 5.51; in the assay with NHERF3_4, Q5T2W1 (setting [2]), “below the threshold”; with MPDZ_10, O75970 (setting [2]), “below the threshold”; in the assay with APBA1_2, Q02410 (setting [2]), “below the threshold”; with FRMPD2_1, Q68DX3 (setting [2]), 3.49; in the assay with FRMPD1, Q5SYB0 (setting [2]) it was “below the threshold”. The negative logarithm of the Kd (pKd) entry in the assay with NHERF4_2, Q86UT5 (setting [2]) is “below the threshold”; in the assay with LNX2_3, Q8N448 (setting [2]) it was “below the threshold”; in the assay with PDZD2_2, O15018 (setting [2]), 3.78; in the assay with SHANK1, Q9Y566 (setting [2]) it was “below the threshold”; with APBA2_2, Q99767 (setting [2]) it was “below the threshold”; with DFNB31_2, Q9P202 (setting [2]) it was “below the threshold”. Further, the pKd entry was “below the threshold” with NHERF4_4, Q86UT5 (setting [2]); 4.93 in the assay with TX1BP3, O14907 (setting [2]); “below the threshold” with NHERF3_3, Q5T2W1 (setting [2]); “below the threshold” in the assay with CARD11, Q9BXL7 (setting [2]); “below the threshold” in the assay with LIMK2, P53671 (setting [2]).

For QRQARSETLV [HPV59-E6, Q81964], the negative logarithm of the Kd (pKd) result is given as “below the threshold” with LNX1_3, Q8TBB1 (setting [2]); “below the threshold” with Inadl_3, Q8NI35 (setting [2]); “below the threshold” with LAP2, Q96RT1 (setting [2]); “below the threshold” in the assay with IL16_1, Q14005 (setting [2]); “below the threshold” with MPP6, Q9NZW5 (setting [2]); “below the threshold” in the assay with MPP7, Q5T2T1 (setting [2]). Besides, the negative-log Kd (pKd) is 5.45 with DLG4_2, P78352 (setting [2]); “below the threshold” in the assay with NHERF3_4, Q5T2W1 (setting [2]); “below the threshold” with MPDZ_10, O75970 (setting [2]); “below the threshold” in the assay with APBA1_2, Q02410 (setting [2]); “below the threshold” in the assay with FRMPD2_1, Q68DX3 (setting [2]); “below the threshold” with FRMPD1, Q5SYB0 (setting [2]). Moreover, the negative logarithm of the Kd (pKd) entry with NHERF4_2, Q86UT5 (setting [2]) is “below the threshold”; with LNX2_3, Q8N448 (setting [2]), “below the threshold”; in the assay with PDZD2_2, O15018 (setting [2]) it was 4.37; in the assay with SHANK1, Q9Y566 (setting [2]), “below the threshold”; in the assay with APBA2_2, Q99767 (setting [2]) it was “below the threshold”; with DFNB31_2, Q9P202 (setting [2]), “below the threshold”. The negative logarithm of the Kd (pKd) entry with NHERF4_4, Q86UT5 (setting [2]) was “below the threshold”; with TX1BP3, O14907 (setting [2]), 4.05; in the assay with NHERF3_3, Q5T2W1 (setting [2]), “below the threshold”; in the assay with CARD11, Q9BXL7 (setting [2]) it was “below the threshold”; with LIMK2, P53671 (setting [2]), “below the threshold”.
